According to US20260234269A1 (TRUEBINDING, published 2026):

Legend:
[1] = target: T1, mouse Gal3 on mouse cells (B16F10 tumor cells, RAW264.7 macrophages) (mouse, UniProt P16110 2-264); assay: flow cytometry, RAW cells, IMT001 10 ug/ml
T1 construct: whole, on cells; also called mGal3; Gal3 on RAW cells

[2] = target: T2, Human Galectin-3 protein (Acro Biosystems, GA3-H5129) (human, UniProt P17931 2-250); assay: ELISA, hGal3 coated, antibody 3 ug/mL, competitor hTIM3
T2 construct: Bought protein; also called hGal3; Gal3; not shown: linker-spaced 6-histidine tag

hGal3 peptide 4 = target: T3, hGal3 peptide 4 (human); assay: dot blot, 20 ug peptide per dot, anti-mIgG HRP
T3 peptide: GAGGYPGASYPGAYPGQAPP

hGal3 peptide 1 [3] = target: T4, hGal3 peptide 1 (human); assay: dot blot, 20 ug peptide per dot, anti-mIgG HRP
T4 construct: also called peptide 1 of Gal3
T4 peptide: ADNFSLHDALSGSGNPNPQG

hGal3 peptide 2 [4] = target: T5, hGal3 peptide 2 (human); assay: dot blot, 20 ug peptide per dot, anti-mIgG HRP
T5 peptide: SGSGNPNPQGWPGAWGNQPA

hGal3 peptide 7 [5] = target: T6, hGal3 peptide 7 (human); assay: dot blot, 20 ug peptide per dot, anti-mIgG HRP
T6 peptide: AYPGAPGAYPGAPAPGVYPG

[6] = target: T2, Human Galectin-3 protein (Acro …); assay: SPR Biacore T200, antibody captured, Galectin-3 analyte
hGal3 peptide 2 [7] = target: T5, hGal3 peptide 2; assay: peptide ELISA, 20-mer library (Epitope Mapping)
hGal3 peptide 7 [8] = target: T6, hGal3 peptide 7; assay: peptide ELISA, 20-mer library (Epitope Mapping)
[9] = target: T2, Human Galectin-3 protein (Acro …); assay: ELISA, hGal3 coated, competitor hTIM3 (FIG. 24)
[10] = target: T7, Flag-tagged human Gal3 protein on A20 cells (A20 Gal3 cells) (human, UniProt P17931 2-250); assay: flow cytometry, A20 Gal3 cells, anti-hFc APC
T7 construct: also called A20 cells overexpressing human Gal3; not shown: Flag tag

[11] = target: T8, mouse Gal3 protein (BioLegend) (mouse, UniProt P16110 2-264, limits assumed); assay: ELISA, mGal3 coated, mouse TIM-3 Fc
T8 construct: also called mGal3
T8 sequence (P16110 2-264 limits assumed): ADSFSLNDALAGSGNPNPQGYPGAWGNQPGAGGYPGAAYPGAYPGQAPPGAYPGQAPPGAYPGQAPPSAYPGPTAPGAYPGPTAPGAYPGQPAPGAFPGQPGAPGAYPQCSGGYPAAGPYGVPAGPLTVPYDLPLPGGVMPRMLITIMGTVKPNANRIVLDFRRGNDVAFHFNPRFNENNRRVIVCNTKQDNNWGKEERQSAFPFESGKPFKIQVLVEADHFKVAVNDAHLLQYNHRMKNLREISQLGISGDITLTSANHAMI

hGal3 peptide 1 [12] = target: T4, hGal3 peptide 1; assay: peptide ELISA, 20-mer library (Epitope Mapping)
hGal3 peptide 8 = target: T9, hGal3 peptide 8 (human); assay: peptide ELISA, 20-mer library (Epitope Mapping)
T9 peptide: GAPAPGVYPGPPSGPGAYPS

T1 sequence (P16110 2-264, one chain of several): as the sequence (P16110 2-264 limits assumed) above

B1: mIMT001 (IMT001) (antibody, V domains shown)
VH: QIQLVQSGPELKKPGETVKISCKASGYTFTNYGMNWVKQAPGKGLKWMGWINTNTGEPTYVEEFKGRFAFSLETSASTAYLQINNLKNEDTATYFCAPYDNFFAYWGQGTLVTVSA
VL: DIVITQDELSNPVTSGESVSISCRSSKSLLYKDGKTYLNWFLQRPGQSPQLLIYLMSTHASGVSDRFSGSGSGTDFTLEISRVKAEDVGVYYCQQLVDYPLTFGAGTKLELK
notes: treated here as one molecule; also called mAb IMT001; Gal3 antibody clone IMT001
MFI, fold over isotype control antibody [1]: > 10 fold | GAL3-TIM3 Blocking @ 3 ug/mL [2]: 80% | binding result (hGal3 peptide 4): no binding (tested: 1 ug/ml) | binding result (hGal3 peptide 1 [3]): no binding (tested: 1 ug/ml) | binding result (hGal3 peptide 2 [4]): no binding (tested: 1 ug/ml) | binding result (hGal3 peptide 7 [5]): no binding (tested: 1 ug/ml) | Kd [6]: 1.67 nM

B2: 7D8.2D8 (antibody, V domains shown)
VH: EVQLVESGGGLVKPGGSLKLSCAASGFTFSSYAMSWVRQTPEKRLEWVATISDGGIYTYYPDNVKGRFTISRDNAKNNLFLQMSHLKSEDTAMYYCVRDGGYWGQGTTLTVSS
VL: DVLMTQTPLSLPVSLGDQASISCRSSQSIVHSNGNTYLEWYLQKPGQSPKLLIYKVSNRFSGVPDRFSGSGSGTDFTLKISRVEAEDLGVYYCFQGSHVPLTFGAGTKLELK
notes: murine antibody
GAL3-TIM3 Blocking @ 3 ug/mL [2]: 12% | Kd [6]: 2.49 nM | binding result (hGal3 peptide 2 [7]): binds | binding result (hGal3 peptide 7 [8]): binds

B3: 15F10.2D6 (antibody, V domains shown)
VH: EVQLVESGGGLVKPGGSLKLSCAASGFAFSSYAMSWVRQTPEKRLEWVATISDGGVYTYYTDHVKGRFTISRDNAEDNLYLQMSHLKSEDTAMYYCVRDGGYWGQGTTLTVSS
VL: DVLMTQTPLSLPVSLGDQASISCRSSQSIVHNNGNTYLEWYLQKPGQSPKLLIYKVSNRFSGVPDRFSGSGSGTDFTLKISRVEAEDLGVYYCFQGSHVPLTFGGGTKLELK
notes: murine antibody
GAL3-TIM3 Blocking @ 3 ug/mL [2]: 19% | Kd [6]: 2.06 nM | binding result (hGal3 peptide 2 [7]): binds | binding result (hGal3 peptide 7 [8]): binds

B4: 24D12.2H9 (antibody, V domains shown)
VH: QVQLKQSGPGLVQPSQSLSITCTVSGFSLTSYGVHWVRQAPGKGLEWLGVIWSGGSTDYNAAFMSRLSISKDNSKSQVFFKMNSLQADDTAIYYCAKSPDGYDVAWFGYWGQGTLVTVSA
VL: DIVMTQSHKFMSTSVGDRVSITCKASQDVRTAVAWYQQKPGQSPKLLIYWASTRHTGVPDRFTGSGSGTDFTLTLSNVQSEDLADYFCQQYSSYPWTFGGGTKLEIK
notes: murine antibody
GAL3-TIM3 Blocking @ 3 ug/mL [2]: 0% | Kd [6]: 4.13 nM | reduction of TIM3-GAL3 binding [9]: ≤ 25%

B5: mouse TIM-3 Fc protein (R&D systems) (Fc fusion, UniProt Q8VIM0 20-191, looked up)
chain: RSLENAYVFEVGKNAYLPCSYTLSTPGALVPMCWGKGFCPWSQCTNELLRTDERNVTYQKSSRYQLKGDLNKGDVSLIIKNVTLDDHGTYCCRIQFPGLMNDKKLELKLDIKAAKVTPAQTAHGDSTTASPRTLTTERNGSETQTLVTLHNNNGTKISTWADEIKDSGETIR
notes: also called mTIM-3 Fc; mTIM-3-Fc; not shown: Fc, detected with anti-human Fc / anti-human IgG
binding result [10]: binds | binding result [11]: binds

B6: 13G4.2F8 (antibody, V domains shown)
VH: QVQLQQPGAELVKPGASVKLSCKASGYTFTSYWMHWVKQRPGQGLEWIGMIHPNSGSTDYNEKFKNKATLNVDKSSSTAYIQLSSLTSEDSAVYYCTRWGIYYYARDYWGQGTTLTVSS
VL: DIVMTQSQKFMSTSVGERVSITCKASQNVGTNVAWYQQKAGQSLELLIYGASNRHTGVPDRFTGSGSGTDFTLTITNVQSEDMTNYFCEQYSNFPLTFGAGTKLELK
notes: murine antibody
GAL3-TIM3 Blocking @ 3 ug/mL [2]: 0% | Kd [6]: 2.53 nM | reduction of TIM3-GAL3 binding [9]: ≤ 25%

B7: 20D11.2C6 (antibody, V domains shown)
VH: EVQLQQSGPELVKPGASVKISCKASGYTFTDFYINWVKQSHGKSLEWIGDINPKNGGINYNPKFKIKATLTVDKSSSTSYMDLRGLTSEDSAVYYCTSGYGFPYWGQGTLVTVSA
VL: DIQMNQSPSSLSASLGDTITITCRASQNIYIWLSWYQQKPGNIPKLLIYKASNLHTGVPSRFSGSGSGTDFTLTISTLQPEDIATYFCLQGQSYPLTFGAGTKLEMK
notes: murine antibody
GAL3-TIM3 Blocking @ 3 ug/mL [2]: 40% | Kd [6]: 27.8 nM | binding result (hGal3 peptide 1 [12]): binds | binding result (hGal3 peptide 8): binds | binding result (hGal3 peptide 7 [8]): binds

B8: 15G7.2A7 (antibody, V domains shown)
VH: EVQLQQSGPELVKPGASVKISCKASGYTFTDYYMNWVKQSHGKSLEWIGDINPNNGGTNYNQKFKGKATLTVDKSSSTAYMELRSLTSEDSAVYYCTSGYGFPYWGQGTLVTVSA
VL: DIQMNQSPSSLSASLGDTISITCRASQNINIWLSWYQQKPGNIPQLLIYKASNLHTGVPSRFSGSGSGTDFTLTISSLQPEDIATYYCLQGQSYPLTFGAGTKLVMK
notes: murine antibody
GAL3-TIM3 Blocking @ 3 ug/mL [2]: 48% | Kd [6]: 11.3 nM | binding result (hGal3 peptide 1 [12]): binds | binding result (hGal3 peptide 8): binds | binding result (hGal3 peptide 7 [8]): binds
